Results published in patent publication US9968687B2, “Anti-DLL3 antibody drug conjugates” (AbbVie Stemcentrx LLC, priority 2013, dated 2018).
Residue numbers refer to the chain shown, from its start.

Biological target: T1, murine DLL3 (Mus musculus, UniProt O88516)
T1 construct: expressed in transfected cells; host or cells: 293 (HEK-293T) cells
T1 sequence (O88516 33-585 isoform O88516-2 limits assumed): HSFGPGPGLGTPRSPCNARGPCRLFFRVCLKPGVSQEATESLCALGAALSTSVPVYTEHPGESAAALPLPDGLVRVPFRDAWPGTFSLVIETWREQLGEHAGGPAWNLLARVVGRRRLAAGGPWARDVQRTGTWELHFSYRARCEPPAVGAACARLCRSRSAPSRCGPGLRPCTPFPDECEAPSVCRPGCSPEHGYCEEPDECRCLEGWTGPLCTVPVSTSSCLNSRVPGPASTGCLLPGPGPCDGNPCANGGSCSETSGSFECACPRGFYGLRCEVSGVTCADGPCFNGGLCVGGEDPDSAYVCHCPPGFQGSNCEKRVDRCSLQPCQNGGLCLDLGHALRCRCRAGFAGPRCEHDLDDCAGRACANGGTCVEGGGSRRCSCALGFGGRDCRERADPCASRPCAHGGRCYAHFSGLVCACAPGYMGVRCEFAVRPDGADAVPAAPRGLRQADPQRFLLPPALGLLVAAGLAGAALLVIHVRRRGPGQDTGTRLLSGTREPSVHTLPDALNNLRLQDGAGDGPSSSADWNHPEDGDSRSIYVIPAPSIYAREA
Assay: Flow cytometry on 293 cells over-expressing murine DLL3
Type: binding
Protocol: In addition to evaluating the exemplary modulators as set forth above, flow cytometry was performed in order to confirm that selected SC16 antibody modulators can immunospecifically associate with human DLL3 and to determine whether the same antibodies cross-react with cynomolgus, rat and/or murine DLL3. More particularly the exemplary murine antibodies were analyzed by flow cytometry using a FACSCanto II and 293 cells over-expressing murine, rat, cynomolgus or human DLL3. In some cases, exemplary murine modulators were analyzed by flow cytometry using a FACSCanto II and yeast cells displaying cynomolgus DLL3 using the methods described by Cochran et al. (J Immunol Methods. 287 (1-2):147-158 (2004).
Such results are not unexpected given that murine DLL3 is approximately 83% homologous with isoform 2 of human DLL3. It will be appreciated that this cross-reactivity may be advantageously exploited in the context of the instant invention through the use of animal models in drug discovery and development.

B1: SC16.10: murine anti-DLL3 monoclonal antibody, sequences in FIGS. 3A and 3B (antibody, V domains shown)
VL: QIVLTQSPAIMSASLGERVTMTCTASSSVSSSYLHWYQQKPGSSPKLWIYSTSNLASGVPTRFSGSGSGTSYSLTISSMEAEDAATYYCHQYHRSPFTFGSGTKLEIK
VH: QVTLKESGPGILQSSQTLSLTCSFSGFSLSTSGMGVGWIRQPSGKGLEWLAHIWWDDVKRYNPVLKSRLTISKDTSSSQVFLKIASVDTADTATYYCARLVDDLYYFDYWGQGTTLTVSS
- cross-reactivity with murine DLL3: did not appreciably associate with murine DLL3

B2: SC16.13: murine anti-DLL3 monoclonal antibody, sequences in FIGS. 3A and 3B (antibody, V domains shown)
VL: QIVLTQSPALVSASPGEKVTMTCSASSSVSYMYWYQQKPRSSPKPWIYLTSNLASGVPARFSGSGSGTSYSLTISSMEAEDAATYYCQQWRSNPFTFGSGTKLEIK
VH: QVTLKESGPGILQPSQTLSLTCSFSGFSLSTSGMGVGWIRQPSGKGLEWLAHIWWDDVKRYNPALKSRLTISKDTSSSQVFLKIASVDTADTATYYCARIVSFDNDVVSAMDYWGQGTSVTVSS
- cross-reactivity with murine DLL3: did not appreciably associate with murine DLL3

B3: SC16.65: murine anti-DLL3 monoclonal antibody, sequences in FIGS. 3A and 3B (antibody, V domains shown)
VL: B2 VL with V11M, A25V, S26T, M77V, S92N, L103V
VH: B2 VH with H52L, T75A, V101A, F103Y, N105Y, S109Y, T121S
- cross-reactivity with murine DLL3: did not appreciably associate with murine DLL3

B4: SC16.8: murine anti-DLL3 monoclonal antibody, sequences in FIGS. 3A and 3B (antibody, V domains shown)
VL: EIQMTQSPSSMSASLGDRITITCQATQDIVKNLNWYQQKPGKPPSFLIYYAIELAEGVPSRFSGSGSGSDYSLTISNLESEDFADYYCLQFYEFPFTFGAGTKLELK
VH: QAQLQQSGAELVRPGTSVKVSCKASGYAFTNYLIEWVKQRPGQGLEWIGVINPGTGGTNYNENFKGKATLTADKSSSTAYMQLSSLTSDDSAVYFCARSPYDYHEGAMDYWGQGTSVTVSS
- cross-reactivity with murine DLL3: cross-react with murine DLL3 to a greater or lesser extent

B5: SC16.4: murine anti-DLL3 monoclonal antibody; VL/VH SEQ ID NOS: 25 and 27 (antibody, listed as Mus musculus, V domains shown)
VH: QIQLVQSGPELKKPGETVKISCKASGYTFTDYSMHWVKQAPGKGLKWMGWINTETGEPGYADDFKGRFAFSLETSASTAYLQINNLKNEDTATYFCARYDGYAMDYWGQGTSVTVSS
VL: DIQMTQTTSSLSASLGDRVTISCRASQDISNYLNWYQQKPDGTVKLLIYYTSRLHSGVPSRFSGSGSGTDYSLTISNLELEDIATYFCQQGDMLPWTFGGGTKLEIK
- cross-reactivity with murine DLL3: cross-react with murine DLL3 to a greater or lesser extent

B6: SC16.25: murine anti-DLL3 monoclonal antibody, sequences in FIGS. 3A and 3B (antibody, V domains shown)
VL: QIVLTQSPAIMSASPGEKVTMTCSASSSVSYMHWYQQKSGTSPKRWIYDSSKLASGVPARFSGSGSGTSYSLTISSMEAEDAATYYCQQWSSNPLTFGAGTKLELK
VH: QVTLKESGPGILQPSQTLSLTCSFSGFSLSTSGMGVGWIRQPSGEGLEWLTDIWWDDNKYYNPSLKSRLTISKDTSSNQVFLNITSVDTADTATYYCARRVNYYYDPYYAMDYWGQGTSVTVSS
- cross-reactivity with murine DLL3: did not appreciably associate with murine DLL3
